± gives the uncertainty stated by the source.

The data set in a line: amyloid nucleation score (Sup35N fusion, yeast selection) (log enrichment); library NNK2; higher = more nucleation; inactive = no reads after selection. Summed up: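 Plasmid inserts were Illumina-sequenced at input and output from psi-negative yeast expressing Sup35N fused to peptides of 20 random codons. The yeast were induced with 100 μM copper sulfate for 24 hours and grown 7 days at 30°C on medium lacking adenine and uracil, and sequences with under 100 input reads were excluded. Nucleation score is the DiMSum log enrichment of output over input reads, centred on the mode score of non-aggregating sequences.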
On to NPGGMQDEQEVVIWAPTRFL, for which the amyloid nucleation score was -0.161 ± 0.39. Under KVTSMHVFIESWGV stands 0.082 ± 0.79; under SCAIELLVQNNSEHLRLITI, -0.266 ± 0.3. The result for GCYHVMVRNNKTGVLVMRSA reads 0.545 ± 0.57; that for IVCSC, -0.194 ± 0.45. The result for YVLPLPGNLNIMEAAGRYYA reads 4.04 ± 0.057; that for QFSLSFSDFCKSLW, 6.287 ± 0.03; that for VDVFPAPSHRCGLMNLCNLV, 0.969 ± 0.28. LIVKLANTGRSQHHIRSWLS yielded an amyloid nucleation score of -0.212 ± 0.38. On to SFGHHPDYRNVMVESYNRMV, for which the amyloid nucleation score turned out to be 0.259 ± 0.23. The result for CMFEFHGVAVGLMRVFHRLW reads 5.23 ± 0.062; that for FSVDMHRWLMTWRHQRDRRV, 2.75 ± 0.18. The result for NCFKECVVPHR reads -0.043 ± 0.37; that for GEFLYNT, -0.237 ± 1.

Consider IDPKEMTGDRQWVSFTVRRR, for which the amyloid nucleation score was 0.574 ± 0.24. Under ELLGVQFRSRKYAATQNQWP stands 2.03 ± 0.19.

In the case of SGILLLRSLFGWPISERGHN, the amyloid nucleation score was 0.167 ± 0.56.

In the case of VLLKLVDLWL, the amyloid nucleation score is -0.017 ± 0.54. The result for VFASMFILFYV reads 3.46 ± 0.07; that for WYRLLGFAMD, -0.603 ± 1.1. Substance QTTVHLTSLHMAGSLCV had an amyloid nucleation score of -0.021 ± 0.79. Under CELEGWSVGSRVNLLILIR stands -0.213 ± 1.1; under HKMADSTNDSNRLEFDMFNE, -0.881 ± 0.78. The result for GLICRV reads 0.518 ± 0.46; that for AISHQPLWLLCHVVHLFRNS, 0.279 ± 0.32; that for VFVWIGLGWVTSLLSLYTNG, “inactive”. In the case of RCLWYKACMRPF, the amyloid nucleation score entry is “inactive”. For the substance RTQSLASQ, the amyloid nucleation score turned out to be 0.144 ± 0.56. Under MTGNIEIIRMCRCTTYGMTY stands 1.09 ± 0.37; under LALSWRNDSYNLKNVLRLLG, -1.16 ± 0.28.

For MWRGQCV, the amyloid nucleation score was 1.06 ± 0.24. Under ASLFFM stands 0.707 ± 0.34. Under NCFVLVRALTYCLGNSR stands 5.18 ± 0.1; under PYWFRFLSYVQMLEYFCAPV, -0.764 ± 0.36; under IVWLLLSGRF, 4.54 ± 0.098. Under KWVVKMDVGCVPSQTRRGSW stands 1.05 ± 0.4. TNIFR displayed an amyloid nucleation score of -0.599 ± 1. Under VNLLLMVWRGLLLARTGRSG stands 1.96 ± 0.11; under RVPTVLFFLIVDFSCPPFSC, “inactive”; under FLVLVWSRCSNLFL, 2.86 ± 0.14. In the case of RCPLHPLGGLYTIWSDYLRL, the amyloid nucleation score turned out to be 5.82 ± 0.075. Under VLEITLCG stands 0.834 ± 0.46; under ETSANDLEPNLSVHHSGFSR, 0.078 ± 0.32. The result for FLNPYNFWLDFWYFLIDSMT reads “inactive”; that for SEERPKETRGGFWARVSSGG, 0.228 ± 0.74. Under VIKFFNLREQFFVIIMAYGF stands “inactive”; under SDCYDDKINVVQSKAVSITL, 0.075 ± 0.76; under SWGTRV, “inactive”. Consider SSCRTSSWLALVWFGLGVSG, for which the amyloid nucleation score was 0.177 ± 0.19. The result for IRLFVRLNGHRWKRNW reads -0.003 ± 0.33; that for MTFDNDVCVSI, “inactive”; that for NNYATCNVHCMFMMI, 10.18 ± 0.05. Turning to VFLYYRTILMWVVSGLL, the amyloid nucleation score was -0.449 ± 0.63. Under SGEVSAVRV stands 0.852 ± 0.19; under VKFVLQVYYGVPST, 0.307 ± 0.27; under INGCFDHPTSIETFSEEMWM, -0.533 ± 0.55. Under THLWVNSFMIDPFRSESAAT stands -0.499 ± 0.54; under VLVNKGLTMHFACSYV, 0.547 ± 0.81; under VLTVN, “inactive”. The result for SSGLTRFKYRRLRSIVFELG reads “inactive”. With GSPSRRGTVYRVWRVRWCNG, the amyloid nucleation score came out at 0.307 ± 0.64. Under IFSTGNVKGNLTR stands -0.491 ± 0.22; under GRSGRNNVKAW, “inactive”. The result for YFDSDRS reads -0.502 ± 0.76; that for MKGALWYSDKAT, 0.102 ± 1.1; that for NRPMEGRLKWSMTVLIVSLY, -0.187 ± 0.65. Under YCDVWGRRCCDANYMERTAS stands 1.35 ± 0.38; under FVCLVLRLCTMGSRASGLKK, 0.255 ± 1.1; under TESVPSWNGMKNMYEDNQLK, 1.54 ± 0.55.

Substance MIYERASSVRISFGMLRFRS had an amyloid nucleation score of -1.48 ± 1.1.

Substance LPCFYEVCQTSHYRFYFIGK registered an amyloid nucleation score of 1.96 ± 0.071. For PEKTFICCLAVRDMQNRGVS, the amyloid nucleation score was -0.032 ± 1.1. Consider RISECAIYARTGSYMSMRRR, for which the amyloid nucleation score stood at 4.08 ± 0.051. The result for WIVSF reads 0.131 ± 0.29; that for CIGIWDAIEVVENREL, -0.545 ± 0.64. LMSNINVSIYIFG: the amyloid nucleation score turned out to be 7.782 ± 0.063. The result for FCGFNDPGRD reads “inactive”; that for FRFTQDMDFRAQFDELSWRL, 2 ± 0.28; that for SFHYLYWIIRLVGRVYLDEG, -0.195 ± 0.36. The result for WVFNNELCNDYEHWLWARFD reads -0.295 ± 0.56; that for RALCTKVRTLLCFYLGVLWS, 0.903 ± 0.74; that for FKNFFSYLLLGVPLIAAITW, -1.67 ± 0.41. The result for LWGYCTMLSEGH reads -0.018 ± 0.2; that for FDRRVDV, -0.076 ± 0.29; that for IPVDT, -0.668 ± 1.1. Consider CFIFKCKKCHLYPMDSVICQ, for which the amyloid nucleation score entry was “inactive”. In the case of SVYLGCRCHVMFVRLTVAFV, the amyloid nucleation score entry is “inactive”. Under DLGHTYTSMYGFLTPSRDVD stands -0.052 ± 0.5; under VVGSWYKSGRKRLQRDDALS, -1.03 ± 0.55. Under RGLISSVFVVMFDACGVIRC stands 5.605 ± 0.035; under SRHWLNDVIFLSHSTSGQHW, 1.49 ± 0.18; under LCGLSTLLFFKMDV, 0.716 ± 0.6.

Consider NAYLVSRVIKLIVLSKWYRY, for which the amyloid nucleation score was determined as 0.689 ± 0.57. The substance KTPGSHVGLWSMPGRSYPSA had an amyloid nucleation score of 0.401 ± 0.45. The result for SDPALVYRITYVIQ reads -0.008 ± 0.49; that for IIVYVDDSPLYAVSRLQSYC, 0.758 ± 0.13. Under LAYIARR stands -0.035 ± 0.76.

Substance IMSNGDRNAYYVKLHES displayed an amyloid nucleation score of 0.123 ± 0.33. The result for SHYPKGCHWGGLHSGDRKFP reads 0.892 ± 0.45. Under IKKIRYPRFLVVLN stands “inactive”; under YSFYAKSW, “inactive”; under AVFSRYCLIYVIMLDHDTDP, 5.03 ± 0.099. Substance WCPLWITCMCLCSGLST showed an amyloid nucleation score of 8.742 ± 0.036. Under RLWCLRSTNEMAVSCYRSWD stands 4.47 ± 0.049. The result for INSSRSFVYDFNTWNFQDVR reads -0.089 ± 0.79; that for GVSVSVYHGWLVLDRMFHNS, 4.25 ± 0.12; that for WVMAISLADFVLYLNWSLYR, “inactive”.

With NLGSHTVEFSVMS, the amyloid nucleation score was 0.152 ± 0.77. With NWNVRRYVTPAFEFRGCV, the amyloid nucleation score was determined as 0.833 ± 0.74.

Take FCKSVHKVHGHNVWCTLCAG: the amyloid nucleation score worked out at 1.11 ± 0.18. VTRRLYSRFIGTKEISAVIC registered an amyloid nucleation score of 0.119 ± 0.43. The result for SLSRNGTVFARFRVSTSRCL reads 4.23 ± 0.057; that for GKINDSGTSYSEKRSGPCRL, -0.874 ± 0.25. In turn, TVFRFNIYDYFFVM registered an amyloid nucleation score of 4.27 ± 0.057. Under VGYFLKAMETCVTSLL stands “inactive”. The result for GRKTDFHFDVRFAWGDNGFS reads “inactive”. For the substance IFAHSPLYMCGYADVYVHPT, the amyloid nucleation score result was “inactive”. Substance CLFRLSSCVPTWLMQLTMWG yielded an amyloid nucleation score of 0.244 ± 0.25.

As to NRNQRSVDRCGFSWYGTQIG, the amyloid nucleation score was found to be 1.3 ± 0.32. In turn, RVYMCCSSYCGNITKVQ displayed an amyloid nucleation score of 8.027 ± 0.022.

AYGVSPI: the amyloid nucleation score is -0.093 ± 0.35. The result for MFCSEMLVYGLMMVLSF reads -0.05 ± 0.3; that for LQCAFFDSSNMWI, -0.604 ± 0.76; that for FYDVSCTRTDIMVESTSRLS, 5.24 ± 0.086. Under PSLVRRNTSLCL stands 0.325 ± 0.41; under YPNRFINTCFVRCNISLNNY, 8.485 ± 0.061. Under TWNGVWLGDFACFSWYMGPL stands 0.094 ± 0.36; under IKHVEDASGKRTDSRLFTRD, -0.545 ± 0.54; under MNRYSKIVSQFVLAVDSTYF, 0.433 ± 0.74. GMFLWLFLVPRYHPTSTELG showed an amyloid nucleation score of 0.219 ± 1. The result for NYFGKLLWLSLHDTCIVTF reads “inactive”; that for IVGTDSQHVLVLQIFCVCLR, -0.326 ± 1.1. Under QTRRIRYDWDAPQCGWVVTM stands 3.82 ± 0.079; under STDYMGPAY, -0.617 ± 0.37. The result for RVHRLQTEEVMYSSGSK reads 4.96 ± 0.065; that for MYCLFFFMWGCYYYTIFRSV, “inactive”.

Take DDRCATSNIHLLLHPLCTYL: the amyloid nucleation score was determined as 0.754 ± 0.37.

As for TVYAIP, the amyloid nucleation score was -0.322 ± 0.65.

For the substance FRYIFRHKHGWTFLHKMVRK, the amyloid nucleation score was -1.07 ± 1.1.
